Data set [1] in a line: WB abundance of GFP-β-catenin. The conditions noted are these: glycan gained; control: GFP-β-catenin + individual aptamers T1 · AP3.
The nature of data set [2]: WB abundance of endogenous β-catenin. The conditions noted are these: glycan gained; control: individual aptamers T1 · bc339.
Data set [3] can be described thus: WB phospho-specific antibody. The conditions noted are these: glycan gained; control: GFP-β-catenin + individual aptamers T1 · AP3.

B1: β-catenin: NL1F DS aptamers (protein)
parent chain: MATQADLMELDMAMEPDRKAAVSHWQQQSYLDSGIHSGATTTAPSLSGKGNPEEEDVDTSQVLYEWEQGFSQSFTQEQVADIDGQYAMTRAQRVRAAMFPETLDEGMQIPSTQFDAAHPTNVQRLAEPSQMLKHAVVNLINYQDDAELATRAIPELTKLLNDEDQVVVNKAAVMVHQLSKKEASRHAIMRSPQMVSAIVRTMQNTNDVETARCTAGTLHNLSHHREGLLAIFKSGGIPALVKMLGSPVDSVLFYAITTLHNLLLHQEGAKMAVRLAGGLQKMVALLNKTNVKFLAITTDCLQILAYGNQESKLIILASGGPQALVNIMRTYTYEKLLWTTSRVLKVLSVCSSNKPAIVEAGGMQALGLHLTDPSQRLVQNCLWTLRNLSDAATKQEGMEGLLGTLVQLLGSDDINVVTCAAGILSNLTCNNYKNKMMVCQVGGIEALVRTVLRAGDREDITEPAICALRHLTSRHQEAEMAQNAVRLHYGLPVVVKLLHPPSHWPLIKATVGLIRNLALCPANHAPLREQGAIPRLVQLLVRAHQDTQRRTSMGGTQQQFVEGVRMEEIVEGCTGALHILARDVHNRIVIRGLNTIPLFVQLLYSPIENIQRVAAGVLCELAQDKEAAEAIEAEGATAPLTELLHSRNEGVATYAAAVLFRMSEDKPQDYKKRLSVELTSSLFRTEPMAWNETADLGLDIGAQGEPLGYRQDDPSYRSFHSGGYGQDALGMDPMMEHEMGGHHPGADYPVDGLPDLGHAQDLMDGLPPGDSNQLAWFDTDL
As to B1, the expression_or_secretion entry in data set [1] is “increases”.

B2: β-catenin: 3JB8F+12 (protein)
parent chain: B1 parent chain
Regarding B2, the expression_or_secretion result in data set [2] was “increases”.

B3: β-catenin: NL8F100 (protein)
parent chain: B1 parent chain
With B3, the expression_or_secretion result in data set [2] is “increases”.

B4: β-catenin: NL1F30 (protein)
parent chain: B1 parent chain
Turning to B4, in data set [3], the “other: Ser675 phosphorylation” value is on record as “increases”.

For the origin of these results see paper PMC9868088.
